Test results: patent publication US9708383 (Novo Nordisk, dated 2017)
*1 amine or outer side, *2 acyl side, *3 side chain or, on linkers, in order; H or OH if unused. Where no end group is shown, it is not given here. Side-chain parts run from the residue outwards. [ ]: non-standard residue; d: D form. The star is where a group is joined. Decanoyl(10-(4-HOOC-PhO)) = O=C(O)c1ccc(OCCCCCCCCCC(=O)*)cc1; γGlu = O=C(O)[C@H](CCC(=O)[*:2])N[*:1]; 13‑carboxytridecanoyl = C14 diacid; AEEA = NCCOCCOCC(=O)O; Aib = CC(C)(N)C(=O)O

B1: GLP-1 derivative of Example 9: [Aib8,Lys18,Glu22,Arg26,Lys27,His31,Arg34]-GLP-1-(7-35)-peptide (peptide)
peptide: H[Aib]EGTFTSDVSK([AEEA-AEEA-γGlu-13‑carboxytridecanoyl])YLEEQAARK([AEEA-AEEA-γGlu-13‑carboxytridecanoyl])FIAHLVRG
modifications: ends and bridges not checked
B2: GLP-1 derivative of Example 78: [Lys18,Glu22,Arg26,Lys31,Arg34]-GLP-1-(7-37)-peptide (peptide)
peptide: HAEGTFTSDVSK([AEEA-AEEA-γGlu-13‑carboxytridecanoyl])YLEEQAAREFIAK([AEEA-AEEA-γGlu-13‑carboxytridecanoyl])LVRGRG
B3: GLP-1 derivative of Example 42: [Lys18,Glu22,Val25,Arg26,Lys27,Gln34]-GLP-1-(7-37)-peptide (peptide)
peptide: HAEGTFTSDVSK([AEEA-AEEA-γGlu-Decanoyl(10-(4-HOOC-PhO))])YLEEQAVRK([AEEA-AEEA-γGlu-Decanoyl(10-(4-HOOC-PhO))])FIAWLVQGRG
B4: GLP-1 derivative of Example 62: [Lys18,Glu22,His26,Lys27,His31,Arg34]-GLP-1-(7-37)-peptide (peptide)
peptide: HAEGTFTSDVSK([AEEA-AEEA-γGlu-13‑carboxytridecanoyl])YLEEQAAHK([AEEA-AEEA-γGlu-13‑carboxytridecanoyl])FIAHLVRGRG
B5: GLP-1 derivative of Example 35: [Lys18,Glu22,His26,Lys27,Gln34]-GLP-1-(7-37)-peptide (peptide)
peptide: HAEGTFTSDVSK([AEEA-AEEA-γGlu-Decanoyl(10-(4-HOOC-PhO))])YLEEQAAHK([AEEA-AEEA-γGlu-Decanoyl(10-(4-HOOC-PhO))])FIAWLVQGRG
B6: GLP-1 derivative of Example 58: [Lys18,Glu22,Glu23,Val25,Arg26,Lys27,Gln34]-GLP-1-(7-37)-peptide (peptide)
peptide: HAEGTFTSDVSK([AEEA-AEEA-γGlu-13‑carboxytridecanoyl])YLEEEAVRK([AEEA-AEEA-γGlu-13‑carboxytridecanoyl])FIAWLVQGRG
B7: GLP-1 derivative of Example 95: [Lys18,Arg34]-GLP-1-(7-37)-peptide (peptide)
peptide: HAEGTFTSDVSK([AEEA-AEEA-γGlu-Decanoyl(10-(4-HOOC-PhO))])YLEGQAAK([AEEA-AEEA-γGlu-Decanoyl(10-(4-HOOC-PhO))])EFIAWLVRGRG
B8: GLP-1 derivative of Example 75: [Lys18,Glu22,Val25,Arg26,Lys31,Arg34]-GLP-1-(7-37)-peptide (peptide)
peptide: HAEGTFTSDVSK([AEEA-AEEA-γGlu-Decanoyl(10-(4-HOOC-PhO))])YLEEQAVREFIAK([AEEA-AEEA-γGlu-Decanoyl(10-(4-HOOC-PhO))])LVRGRG
B9: GLP-1 derivative of Example 91: [Lys18,Arg26,Lys31,Arg34]-GLP-1-(7-37)-peptide (peptide)
peptide: HAEGTFTSDVSK([AEEA-AEEA-γGlu-γGlu-γGlu-13‑carboxytridecanoyl])YLEGQAAREFIAK([AEEA-AEEA-γGlu-γGlu-γGlu-13‑carboxytridecanoyl])LVRGRG
B10: GLP-1 derivative of Example 43: [Lys18,Glu22,Val25,Arg26,Lys31,Arg34]-GLP-1-(7-37)-peptide (peptide)
peptide: HAEGTFTSDVSK([AEEA-AEEA-γGlu-13‑carboxytridecanoyl])YLEEQAVREFIAK([AEEA-AEEA-γGlu-13‑carboxytridecanoyl])LVRGRG
B11: GLP-1 derivative of Example 72: [Lys18,His26,Lys31,Arg34]-GLP-1-(7-37)-peptide (peptide)
peptide: HAEGTFTSDVSK([AEEA-AEEA-γGlu-13‑carboxytridecanoyl])YLEGQAAHEFIAK([AEEA-AEEA-γGlu-13‑carboxytridecanoyl])LVRGRG
notes: position 26 of the entry may not be His
B12: GLP-1 derivative of Example 60: [Lys18,Glu22,His26,Lys27,Arg34]-GLP-1-(7-37)-peptide (peptide)
peptide: HAEGTFTSDVSK([AEEA-AEEA-γGlu-13‑carboxytridecanoyl])YLEEQAAHK([AEEA-AEEA-γGlu-13‑carboxytridecanoyl])FIAWLVRGRG
B13: GLP-1 derivative of Example 56: [Lys18,Glu22,Val25,Arg26,Lys31,Gln34]-GLP-1-(7-37)-peptide (peptide)
peptide: HAEGTFTSDVSK([γGlu-AEEA-AEEA-13‑carboxytridecanoyl])YLEEQAVREFIAK([γGlu-AEEA-AEEA-13‑carboxytridecanoyl])LVQGRG
B14: GLP-1 derivative of Example 54: [Lys18,Glu22,Gln34]-GLP-1-(7-37)-peptide (peptide)
peptide: HAEGTFTSDVSK([AEEA-AEEA-γGlu-13‑carboxytridecanoyl])YLEEQAAK([AEEA-AEEA-γGlu-13‑carboxytridecanoyl])EFIAWLVQGRG

target: T1, human GLP-1 receptor (human, UniProt P43220 24-463); assay: SPA, displacement of 125I-GLP-1(7-36)NH2, 0.005% HSA
T1 construct: whole, on cells; Used as purified membranes of the transfected hamster cells, not whole cells; also called hGLP-1
Method: (§1) A shift in the binding affinity, $IC50$, is an indication that the derivative in question binds to albumin, and thereby a prediction of a potential protracted pharmacokinetic profile of the derivative in question in animal models.
(§2) 25 ul (microliter) of test compounds are added to Optiplate. HSA ("high albumin" experiment containing 2% HSA), or buffer ("low albumin" experiment containing 0.005% HSA), was added (50 ul). 5-10 µg protein/sample was added (50 ul) corresponding to 0.1-0.2 mg protein/ml (to be preferably optimised for each membrane preparation). SPA-particles (Wheatgerm agglutinin SPA beads, Perkin Elmer, #RPNQ0001) were added in an amount of 0.5 mg/well (50 ul). […] The plates were sealed with PlateSealer and incubated for 120 minutes at 30° C. while shaking. The plates were centrifuged (1500 rpm, 10 min) and counted in Topcounter.

Binder | IC50
B1 | < 1000 nM
B2 | < 1000 nM
B3 | < 1000 nM
B4 | < 1000 nM
B5 | < 1000 nM
B6 | < 1000 nM
B7 | < 1000 nM
B8 | < 1000 nM
B9 | < 1000 nM
B10 | < 1000 nM
B11 | < 1000 nM
B12 | < 1000 nM
B13 | < 1000 nM
B14 | < 1000 nM

target: T1, human GLP-1 receptor; assay: SPA, 2.0% vs 0.005% HSA
Method: as §1, §2

Binder | ratio IC50 high HSA/IC50 low HSA
B1 | > 1
B2 | > 1
B3 | > 1
B4 | > 1
B5 | > 1
B6 | > 1
B7 | > 1
B8 | > 1
B9 | > 1
B10 | > 1
B11 | > 1
B12 | > 1
B13 | > 1
B14 | > 1
